1 substance from US11583587B2, “Polymer” (VECTURA LIMITED, priority 2016, dated 2023) can be followed below.

One data set concerns trypsin. Description: Protein protection against proteolytic enzymes (trypsin, then poly(allyl amine) disassembly). In kind it is biochemical, bovine. Here is the method:
In order to assess the enzymatic activity of the lysozyme model protein, a turbidimetric enzymatic assay was performed by measuring the decrease in optical density of a suspension of Micrococcus lysodeikticus lyophilized cells, a natural substrate for lysozyme, in PB. Nanocomplexes and also free lysozyme were extracted from the dry powders as previously described, at a protein concentration of […] (as quantified by BCA assay). 10 mg of lyophilised cells were added to 20 mL of PB. 300 μL of this substrate suspension were added to 150 μL of particle solution and the decrease in optical density was measured at λ=460 nm as a function of time for 60 sec. The absorbance decay plots from 0 to 10 sec were fitted to a linear equation and the enzymatic activities were then determined from the slope of the fitted line. Not spray-dried free lysozyme was used in this work as reference (100% enzymatic activity).
Nanocomplexes were recovered from the dry powders as previously described, at a protein concentration of 37 μg mL^−1 (as quantified by BCA assay). 657 μg of trypsin (≥10,000 BAEE units/mg protein) were added to 4 mL of particle solution and the mixture was kept at room temperature for 3 h under gentle stirring. […] Lysozyme activity was then quantified as previously described. […]

Another data set concerns complement proteins. Description: Complement activation assay (residual haemolytic capacity of normal human serum). Particulars: at the protein concentrations investigated. Here is the method: Polymer-lysozyme nanocomplexes or free lysozyme were kept in contact with normal human serum (NHS) and the residual haemolytic capacity was measured to study the complement activation. NHS was received from healthy volunteers, aliquoted and stored at −80° C. until use. Sheep erythrocytes were sensitised by rabbit anti-sheep erythrocyte antibodies at a final dilution of 1/800 v/v and these sensitised sheep erythrocytes were suspended at a final concentration of 1×10^8 cells mL^−1 in veronal-buffer saline (VBS2+, containing 0.5 mM Mg and 0.15 mM Ca2+). VBS2+ and NHS were mixed with polymer-lysozyme nanocomplexes or free lysozyme at final protein concentration of 1.116 mg mL^−1 so that the final dilution of NHS in the reaction mixture was 1/4 (v/v) in a final volume of 400 μl. […] The supernatant was collected and the optical density was measured at 415 nm with Dynex absorbance microplate reader (Dynex technologies, USA).
Sample without serum was used here as […] (100% complement activation, 0% sensitised sheep erythrocytes lysis) and employed to correct the absorbance values from the samples. […] They can be calculated by a linear fit to a log-log version of the Von Krogh (equation 1). Particularly, in this study, the data was expressed as the percentage of complement activation relative to 100% complement activation observed with our positive control samples.

In the case of “lysozyme: Model protein; samples named lysozyme contained no polymer (lysozyme 5% w/w)”, the “decrease in enzymatic activity after trypsin” value in the data set with trypsin (no polymer added to the dry powder) is listed as above 60%. Moreover, the “residual lysozyme activity after trypsin” value in the data set with trypsin (trypsin 3 h in PB, then poly(allyl amine) 1 h, % of initial activity) was “less than 40%”. The “hemolysis of sensitized sheep erythrocytes without serum” value in the data set on complement proteins is reported as “did not lead to hemolysis”.
